System: anti-ras optimised three-finger peptide (F1 +3 Asn) finger 1 helix position +3 S->N (synthetic)
Assay: ELISA
Conditions: apparent Kd; phage-displayed; equal to wild-type Zif268 DBD; Zn

“GTGGTGGGCGCCGTCGGTGTGGGCAAG (double strand) [EJ (G12V) mutant H-ras site]” showed a Kd of 3 nM.
